Laboratory results reported in patent US20060275758A1, “Use of pp2a phosphatase modulators in the treatment of mental disorders” (priority 2002, published 2006).

B1: GST-PPP2R2C radiolabeled recombinant protein (other)
chain: MGEDTDTRKINHSFLRDHSYVTEADIISTVEFNHTGELLATGDKGGRVVIFQREPESKNAPHSQGDYDVYSTFQSHEPEFDYLKSLEIEEKINKIKWLPQQNAAHSLLSTNDKTIKLWKITERDKRPEGYNLKDEEGKLKDLSTVTSLQVPVLKPMDLMVEVSPRRIFANGHTYHINSISVNSDCETYMSADDLRINLWHLAITDRSFNIVDIKPANMEDLTEVITASEFHPHHCNLFVYSSSKGSLRLCDMPAAALCDKHSKLFEEPEDPSNRSFFSEIISSVSDVKFSHSDRYMLTRDYLTVKVWDLNMEARPIETYQVHDYLRSKLCSLYENDCIFDKFECAWNGSDSVIMTGAYNNFFRMFDRNTKRDVTLEASRESSKPRAVLKPRRVCVGGKRRRDDISVDSLDFTKKILHTAWHPAENIIAIAATNNLYIFQDKVNSDMH
modifications: radiolabeled with [32P]-γATP by Protein Kinase A Catalytic Subunit
notes: Used as the soluble probe in the solid phase overlay assay; also called PP2A/Bγ; pGEX-2TK-PPP2R2C; not shown: glutathione S-transferase encoded by the pGEX-2TK vector (Amersham Pharmacia Biotech)

How the values were obtained:
[1] = test system: GST-2E11 recombinant protein
PP2A phosphatase = assay: In vitro dephosphorylation of phosphorylated GST-2E11 with HTB-14 whole cell extracts; format: biochemical, Human; conditions: HTB-14 cell extracts (500 μg) plus 400 μM okadaic acid, 30 min, room temperature
Experimental: In vitro phosphorylated GST-2E11 fusion protein was incubated at room temperature for 30 min with 500 μg of whole cell extracts of Human glioblastoma, astrocytoma cell line (ATCC number: HTB-14) with or without 400 μM of the PP2A phosphatase inhibitor okadaic acid (Sigma). HTB-14 whole cell extracts were prepared as follow: cells were washed three times with ice-cold TBS buffer (10 mM Tris-HCl [pH 8.0], 120 mM NaCl) and lysed at 4° C. for 30 min in EBC buffer (50 mM Tris-HCl [pH 8.0], 120 mM NaCl, 0.5% Nonidet P-40). Then the lysate was centrifugated for 10 min at 13.000×g at 4° C. to pellet cell debris. Proteins present in the supernatant were quantified by the standard Bradford's method (Bio-Rad Protein Assay). The proteins were then resolved by 10% SDS-PAGE, and visualized by autoradiography.
The phosphorylated radiolabeled GST-2E11 proteins obtained from the previous assay were incubated in the presence of HTB-14 cell extracts containing the PP2A phosphatase to determine whether PP2A is capable of dephosphorylating GST-2E11 proteins. In this experiment, a protein that is dephosphorylated by PP2A is not radioactive after incubation in the presence of HTB-14 cell extracts any more. Thus dephosphorylation of the GST-2E11 protein is monitored by disappearance of the signal visualized by autoradiography. […]

GSK-3β = assay: In vitro phosphorylation assay of GST-2E11 (KCNQ2-15b fusion protein) with recombinant GSK-3β kinase and PKA; format: biochemical; conditions: LiCl added to the kination mix (0, 8.3, 25, 75, 225 mM); autoradiography band at about 45 kD; read-out: LiCl concentration at which the phosphorylation state of GST-2E11 was reduced by 50%
Experimental: Expression and purification of the GST-2E11 fusion protein were performed as described above. Beads with bound fusion protein corresponding to 1 ml of bacterial clear lysate were washed three times in NETN and one time with HMK buffer without DTT (20 mM Tris-HCl [pH 7.5], 120 mM NaCl, 12 mM MgCl2). Beads were resuspended in 240 μl of reaction mix (24 μl of 10× HMK Buffer with 20 mM DTT, 40 units of Protein Kinase A Catalytic Subunit [PKA from bovine heart, 250 units/vial, Sigma] in 40 mM DTT, 5 μl of 24 mM ATP and 207 μl of distilled water) and incubated for 30 min at room temperature. Beads were then washed three times in NETN buffer and one time in GSK -3β reaction buffer (20 mM Tris-HCl [pH 7.5], 10 mM MgCl2, 5 mM DTT) (New England Biolabs). Beads were then resuspended in 50 μl of reaction mix (5 μl of 10× GSK-3β reaction buffer, 1 μl of [^32P]γATP 10 mCi/ml, 50 U of recombinant GSK-3β[New England Biolabs], and distilled water for a final volume of 50 μl) and incubated at room temperature for 30 min. After three washes in NETN buffer, phosphorylated proteins were boiled in 2× Sample Buffer (125 mM Tris-HCl [pH 6.8], 4% SDS, 20% glycerol, 1.4 M β-Mercapto ethanol), resolved by 10% SDS-PAGE, and visualized by autoradiography.
In this phosphorylation assay, non-radiolabeled polypeptides to be tested are incubated in the presence of GSK-3β, PKA and radioactive ATP. […]

GST recombinant protein = target: T1, GST recombinant protein (UniProt P08515 1-218 = GST); assay: solid phase overlay assay: GST blotted on nitrocellulose, probed with 32P-labeled GST-PPP2R2C, autoradiography
T1 construct: Negative control in the overlay assay; also called Glutathione S-transferase; pGEX2TK plasmid product
Experimental: After 4.5 hr of incubation, the membrane was washed with Hyb75 buffer, 1 mM DTT, 1% (w/v) non-fat dry milk three times for 15 min at room temperature. The blots were analyzed by autoradiography.

| Molecule | phosphorylation of GST-2E11 with 5 µg of CREB phosphopeptides added as competitor [1] | phosphorylation with [32P]γATP, band at about 45 kD by autoradiography [1] | further results |
| --- | --- | --- | --- |
| Protein Kinase A Catalytic Subunit (PKA from bovine heart, Sigma) | A band did still appear at a position corresponding to the size of GST-2E11, but the intensity of the band was very significantly lower | Thus the GST-2E11 protein is phosphorylated by GSK-3β and PKA in vitro |  |
| PP2A phosphatase in HTB-14 whole cell extracts |  |  | dephosphorylation of 32P-phosphorylated GST-2E11 (loss of the autoradiography band), with or without okadaic acid [1]: In the line loaded with GST-2E11 fusion proteins incubated in the presence of HTB-14 cell extracts, the band had an extremely weaker intensity |
| recombinant GSK-3β kinase (New England Biolabs) | A band did still appear at a position corresponding to the size of GST-2E11, but the intensity of the band was very significantly lower | Thus the GST-2E11 protein is phosphorylated by GSK-3β and PKA in vitro |  |
| C=C1[C@@H](O)[C@@H]2O[C@]3(CC[C@H](/C=C/[C@@H](C)[C@@H]4CC(C)=C[C@@]5(O[C@H](C[C@@](C)(O)C(=O)O)CC[C@H]5O)O4)O3)CC[C@H]2O[C@@H]1[C@@H](O)C[C@H](C)[C@H]1O[C@@]2(CCCCO2)CC[C@H]1C [okadaic acid] |  |  | intensity of the GST-2E11 band versus the band of phosphorylated GST-2E11 (reference) (PP2A phosphatase): only slightly weaker |
| [Cl-].[Li+] [LiCl] |  |  | IC50 (GSK-3β): ~50 mM |
| B1 |  |  | binding result (GST recombinant protein): no binding (tested: 100 ng, 10 ng and 0.1 ng of GST loaded) |
